Results published in publication PMC4605657, “Interaction between TATA-Binding Protein (TBP) and Multiprotein Bridging Factor-1 (MBF1) from the Filamentous Insect Pathogenic Fungus Beauveria bassiana” (PLoS ONE, 2015).

Target: T1, Beauveria bassiana TATA-binding protein (BbTBP) (Beauveria bassiana, UniProt J4W563 1-253)
T1 construct: open reading frame amplified with primers PTBP-F/PTBP-R and cloned EcoRI/HindIII into pET28a; the forward primer begins at the codon after the start methionine (GAG GGC ATT ...), the reverse primer holds the stop codon; also called BbTBP1; source: E. coli Rosetta DE3, purified (Ni- or Co-NTA agarose)
T1 sequence: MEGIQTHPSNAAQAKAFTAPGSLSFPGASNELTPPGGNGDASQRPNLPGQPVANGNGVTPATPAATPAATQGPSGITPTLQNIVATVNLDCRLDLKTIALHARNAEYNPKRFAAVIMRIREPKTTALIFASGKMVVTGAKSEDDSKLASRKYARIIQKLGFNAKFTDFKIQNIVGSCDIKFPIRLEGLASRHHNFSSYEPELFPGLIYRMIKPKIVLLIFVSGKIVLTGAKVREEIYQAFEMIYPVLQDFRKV
Assay: native gel or EMSA; super-shift on 6% non-denaturing PAGE; BbTBP 1129 nM and BbMBF1 855 nM with TATA-containing oligonucleotide (TATA^C 16.8 nM or TATA^P 18.3 nM); 30 min at 37°C; 60 mM KCl, 20 mM Tris pH 7.9, 5.0 mM MgCl2, 10 mM dithiothreitol, 0.2 mg/ml BSA, 10% glycerol; nucleic acid and protein stain
Settings: both partners purified

B1: Beauveria bassiana multiprotein bridging factor 1 (BbMBF1) (natural protein)
chain: not shown
notes: Multiprotein bridging factor 1 of Beauveria bassiana, locus tag BBA_01830, 153 amino acids; open reading frame amplified with primers PMBF1-F/PMBF1-R and cloned EcoRI/HindIII into pET28a; the forward primer begins at the codon after the start methionine (TCT GAC GAC ...), the reverse primer holds the stop codon; source: E. coli Rosetta DE3, purified (Ni- or Co-NTA agarose)
B1: binds.
